Legend:
[1] = target: T1, Murine ortholog of 191P4D12, wild type (on PC3 cells) (mouse, UniProt Q8R007 31-508); assay: FACS on PC3 cells expressing the murine ortholog
T1 construct: whole, on cells; also called mouse 191P4D12
T1 sequence (looked up): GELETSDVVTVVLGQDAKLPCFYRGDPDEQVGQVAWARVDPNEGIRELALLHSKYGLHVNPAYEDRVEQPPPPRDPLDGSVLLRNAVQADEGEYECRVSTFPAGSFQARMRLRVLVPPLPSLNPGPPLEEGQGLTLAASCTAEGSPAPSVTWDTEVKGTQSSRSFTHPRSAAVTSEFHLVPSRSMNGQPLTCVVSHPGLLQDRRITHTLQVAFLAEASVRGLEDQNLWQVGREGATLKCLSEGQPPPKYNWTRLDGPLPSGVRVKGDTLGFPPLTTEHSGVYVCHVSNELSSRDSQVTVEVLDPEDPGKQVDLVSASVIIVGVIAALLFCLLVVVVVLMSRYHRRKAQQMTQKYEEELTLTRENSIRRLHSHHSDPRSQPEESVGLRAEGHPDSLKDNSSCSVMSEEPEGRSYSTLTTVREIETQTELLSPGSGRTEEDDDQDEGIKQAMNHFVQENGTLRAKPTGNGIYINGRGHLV
Text: The 191P4D12 protein of human, cynomolgus, rat and murine origin was overexpressed recombinantly in a PC3 cell line to determine cross-reactivity of Ha22-2(2,4)6.1 to these orthologs. It was shown that Ha22-2(2,4)6.1 strongly cross-reacts with cynomolgus and rat orthologs of 191P4D12 (FIG. 23).

[2] = target: T2, Rat 191P4D12 (on PC3 cells) (rat, UniProt D3ZET1 31-509); assay: FACS titration on PC3 cells expressing the rat ortholog
T2 construct: whole, on cells; also called PC3-rat-191P4D12; Rat ortholog
T2 sequence: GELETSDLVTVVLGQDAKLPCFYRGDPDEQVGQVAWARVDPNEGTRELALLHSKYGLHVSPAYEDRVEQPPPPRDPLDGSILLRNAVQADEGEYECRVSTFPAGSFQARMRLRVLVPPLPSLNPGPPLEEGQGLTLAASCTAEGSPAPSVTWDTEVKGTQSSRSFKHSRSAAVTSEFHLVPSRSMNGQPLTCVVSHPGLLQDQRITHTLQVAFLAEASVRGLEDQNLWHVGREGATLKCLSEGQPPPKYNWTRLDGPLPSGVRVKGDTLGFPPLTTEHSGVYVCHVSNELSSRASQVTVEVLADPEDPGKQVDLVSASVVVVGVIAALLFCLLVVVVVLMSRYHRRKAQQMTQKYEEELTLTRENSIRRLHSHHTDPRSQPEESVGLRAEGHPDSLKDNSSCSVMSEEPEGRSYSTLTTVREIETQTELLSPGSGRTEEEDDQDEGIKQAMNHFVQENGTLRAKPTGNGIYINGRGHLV

EC50 [1]: 70.3 nM
EC50 (read off the curve) [2]: ~0.3 nM
B1: Ha22-2(2,4)6.1 MAb (antibody, human IgG1, kappa, V domains shown)
VH: EVQLVESGGGLVQPGGSLRLSCAASGFTFSSYNMNWVRQAPGKGLEWVSYISSSSSTIYYADSVKGRFTISRDNAKNSLSLQMNSLRDEDTAVYYCARAYYYGMDVWGQGTTVTVSS
VL: DIQMTQSPSSVSASVGDRVTITCRASQGISGWLAWYQQKPGKAPKFLIYAASTLQSGVPSRFSGSGSGTDFTLTISSLQPEDFATYYCQQANSFPPTFGGGTKVEIKR
notes: Fully human IgG1 kappa from XenoMouse; Used biotinylated in the Western blot; also called 191P4D12 MAb Ha22-2(2,4)6.1; Ha22-(2,4)6.1 MAb
